# Source: IntAct's records for PubMed 17641687
# B1: Kinesin-like protein KIF16B (Homo sapiens), Q96L93 (parent)
# chain: MASVKVAVRVRPMNRREKDLEAKFIIQMEKSKTTITNLKIPEGGTGDSGRERTKTFTYDFSFYSADTKSPDYVSQEMVFKTLGTDVVKSAFEGYNACVFAYGQTGSGKSYTMMGNSGDSGLIPRICEGLFSRINETTRWDEASFRTEVSYLEIYNERVRDLLRRKSSKTFNLRVREHPKEGPYVEDLSKHLVQNYGDVEELMDAGNINRTTAATGMNDVSSRSHAIFTIKFTQAKFDSEMPCETVSKIHLVDLAGSERADATGATGVRLKEGGNINKSLVTLGNVISALADLSQDAANTLAKKKQVFVPYRDSVLTWLLKDSLGGNSKTIMIATISPADVNYGETLSTLRYANRAKNIINKPTINEDANVKLIRELRAEIARLKTLLAQGNQIALLDSPTALSMEEKLQQNEARVQELTKEWTNKWNETQNILKEQTLALRKEGIGVVLDSELPHLIGIDDDLLSTGIILYHLKEGQTYVGRDDASTEQDIVLHGLDLESEHCIFENIGGTVTLIPLSGSQCSVNGVQIVEATHLNQGAVILLGRTNMFRFNHPKEAAKLREKRKSGLLSSFSLSMTDLSKSRENLSAVMLYNPGLEFERQQREELEKLESKRKLIEEMEEKQKSDKAELERMQQEVETQRKETEIVQLQIRKQEESLKRRSFHIENKLKDLLAEKEKFEEERLREQQEIELQKKRQEEETFLRVQEELQRLKELNNNEKAEKFQIFQELDQLQKEKDEQYAKLELEKKRLEEQEKEQVMLVAHLEEQLREKQEMIQLLRRGEVQWVEEEKRDLEGIRESLLRVKEARAGGDEDGEELEKAQLRFFEFKRRQLVKLVNLEKDLVQQKDILKKEVQEEQEILECLKCEHDKESRLLEKHDESVTDVTEVPQDFEKIKPVEYRLQYKERQLQYLLQNHLPTLLEEKQRAFEILDRGPLSLDNTLYQVEKEMEEKEEQLAQYQANANQLQKLQATFEFTANIARQEEKVRKKEKEILESREKQQREALERALARLERRHSALQRHSTLGMEIEEQRQKLASLNSGSREQSGLQASLEAEQEALEKDQERLEYEIQQLKQKIYEVDGVQKDHHGTLEGKVASSSLPVSAEKSHLVPLMDARINAYIEEEVQRRLQDLHRVISEGCSTSADTMKDNEKLHNGTIQRKLKYERMVSRSLGANPDDLKDPIKISIPRYVLCGQGKDAHFEFEVKITVLDETWTVFRRYSRFREMHKTLKLKYAELAALEFPPKKLFGNKDERVIAERRSHLEKYLRDFFSVMLQSATSPLHINKVGLTLSKHTICEFSPFFKKGVFDYSSHGTG
# Variants of: B1
# Settings: with eea1_human EEA1, Q15075
# eea1_human EEA1, Q15075, sequence (Q15075 whole entry): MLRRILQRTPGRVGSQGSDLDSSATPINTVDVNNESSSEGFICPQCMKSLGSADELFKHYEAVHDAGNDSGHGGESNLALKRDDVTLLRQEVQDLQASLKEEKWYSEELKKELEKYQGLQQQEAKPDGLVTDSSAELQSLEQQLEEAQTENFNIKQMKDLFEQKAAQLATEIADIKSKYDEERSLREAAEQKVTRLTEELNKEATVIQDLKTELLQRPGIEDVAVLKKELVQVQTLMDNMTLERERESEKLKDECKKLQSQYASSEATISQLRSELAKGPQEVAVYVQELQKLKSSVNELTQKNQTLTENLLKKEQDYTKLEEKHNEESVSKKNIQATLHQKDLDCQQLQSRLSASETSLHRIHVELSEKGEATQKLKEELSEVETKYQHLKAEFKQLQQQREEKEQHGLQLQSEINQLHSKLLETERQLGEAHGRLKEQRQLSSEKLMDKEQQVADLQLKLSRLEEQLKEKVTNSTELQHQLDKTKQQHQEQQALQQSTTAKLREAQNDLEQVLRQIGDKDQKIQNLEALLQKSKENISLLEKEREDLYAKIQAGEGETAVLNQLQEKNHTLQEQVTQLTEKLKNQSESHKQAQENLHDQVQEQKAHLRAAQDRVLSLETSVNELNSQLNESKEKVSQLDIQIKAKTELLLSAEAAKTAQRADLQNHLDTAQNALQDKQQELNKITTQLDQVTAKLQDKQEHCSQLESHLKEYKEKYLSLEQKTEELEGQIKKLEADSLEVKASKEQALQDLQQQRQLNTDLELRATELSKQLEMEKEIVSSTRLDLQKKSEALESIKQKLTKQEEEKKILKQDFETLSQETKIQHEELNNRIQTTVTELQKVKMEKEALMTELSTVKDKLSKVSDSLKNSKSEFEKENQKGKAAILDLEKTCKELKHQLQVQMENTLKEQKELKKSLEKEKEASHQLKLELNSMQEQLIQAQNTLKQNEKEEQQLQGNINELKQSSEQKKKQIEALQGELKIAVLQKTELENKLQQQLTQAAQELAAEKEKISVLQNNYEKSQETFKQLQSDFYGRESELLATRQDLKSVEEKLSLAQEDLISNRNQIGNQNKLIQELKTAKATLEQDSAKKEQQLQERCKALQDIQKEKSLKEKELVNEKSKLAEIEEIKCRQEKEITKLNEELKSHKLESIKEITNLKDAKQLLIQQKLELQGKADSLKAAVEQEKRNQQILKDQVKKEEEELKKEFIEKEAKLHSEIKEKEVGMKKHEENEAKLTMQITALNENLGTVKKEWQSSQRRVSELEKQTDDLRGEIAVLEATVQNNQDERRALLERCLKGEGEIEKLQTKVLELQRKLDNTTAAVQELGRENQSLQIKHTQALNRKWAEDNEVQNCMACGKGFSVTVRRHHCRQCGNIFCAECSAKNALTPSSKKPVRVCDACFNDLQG
row,Variant,effect of a mutation on the interaction
1,L1248A,disrupting interaction
2,F1249A,disrupting interaction
